Source: patent publication US7981997B2, “Growth factor which acts through ErbB-4 RTK” (Yeda Research And Development Co., priority 2000, dated 2011)

What was measured:
[1] = target: T1, ErbB-4 co-expressed with ErbB-2 (Homo sapiens, UniProt Q15303); assay: Covalent crosslinking to CHO cells co-transfected with ErbB-4 and ErbB-2; type: binding; conditions: precipitation with anti-ErbB-2 antibodies
T1 construct: expressed in transfected cells; host or cells: CHO (Chinese Hamster Ovary) cells, transient co-transfection
Experimental: (§1) CHO cells were transfected with vectors directing expression of the indicated ErbB proteins or their combinations. Two days later cell monolayers were incubated with either ^125I-NRG-1β or ^125I-NRG-4 (EGF-like domains, each at 100 ng/ml). Following 2 hours at 4° C., the covalent crosslinking reagent bis(sulfosuccinimdyl)-suberate (BS^3) was added (1 mM final concentration) and cell extracts prepared after an additional 45 minutes of incubation. The indicated ErbB proteins were then immunoprecipitated with mouse monoclonal antibodies, and the complexes resolved by gel electrophoresis and autoradiography. Arrows mark the locations of monomeric (M) and dimeric (D) receptor complexes.
(§2) Growth factors were labeled with Iodogen (Pierce) as described (Karunagaran et al., 1995). Chemical crosslinking to Chinese Hamster Ovary (CHO) cells engineered to express different ErbB combinations have been performed essentially as described (Tzahar et al., 1996). Briefly, radiolabeled ligands (at 100 ng/ml) were incubated for 2 hours with cell monolayers at 4 C. […] Non-specific binding was determined in the presence of a 100-fold molar excess of the unlabeled ligani. Cells were then washed, lysed in a solution containing 0.1 M NaOH and 0.1% SDS, and radioactivity determined by use of a gamma counter. […]

[2] = target: T2, ErbB-4 co-expressed with ErbB-1 (Homo sapiens, UniProt Q15303); assay: Covalent crosslinking to CHO cells co-transfected with ErbB-4 and ErbB-1; type: binding
T2 construct: expressed in transfected cells; host or cells: CHO (Chinese Hamster Ovary) cells, transient co-transfection
Experimental: as §1, §2

[3] = system: Chinese Hamster Ovary (CHO) cell line; assay: Binding to untransfected CHO cells (low ErbB-2, no other ErbB); conditions: cells express low amounts of ErbB-2, no other ErbB receptor
Experimental: To test the prediction that NRG-4 can recognize a surface-expressed ErbB-4, but no other membrane-bound ErbB protein, a Chinese Hamster Ovary (CHO) cell line was employed. […] CHO cells were transfected with plasmid vectors directing expression of ErbB-4, or co-transfected with an ErbB-4 plasmid together with vectors expressing one of the three other ErbB proteins. Two days later, cells were incubated with ^125I-NRG-4, or with a radiolabeled NRG-1 as control, and subsequently the formed ligand-receptor complexes were stabilized by using a covalent crosslinking reagent. Immunoprecipitation of the expressed ErbB proteins allowed analysis of the covalently held complexes. […] Nevertheless, both monomers and dimers of ErbB-4 were formed by the two ligands (detection of NRG-4-containing dimers required longer film exposures).

ErbB-4 = target: T3, ErbB-4 (Homo sapiens, UniProt Q15303); assay: Ligand displacement analysis of radiolabeled NRG-1β on ErbB-4-expressing CHO cells; type: binding; conditions: displacement of surface-bound radiolabeled NRG-1β
T3 construct: expressed in transfected cells; host or cells: CHO (Chinese Hamster Ovary) cells
Experimental: Displacement analyses of radiolabeled NRG-1β were performed with CHO cells expressing ErbB-4. Cell monolayers (2×10^5 cells) were incubated for 2 hours at 4° C. with a radiolabeled NRG-1 (5 ng/ml) in the presence of increasing concentrations of an unlabeled NRG-4 (closed triangles), or NRG-1β (closed squares). Each data point represents the mean and range (bars) of two determinations.
Growth factors were labeled with Iodogen (Pierce) as described (Karunagaran et al., 1995). Chemical crosslinking to Chinese Hamster Ovary (CHO) cells engineered to express different ErbB combinations have been performed essentially as described (Tzahar et al., 1996). Briefly, radiolabeled ligands (at 100 ng/ml) were incubated for 2 hours with cell monolayers at 4 C. The chemical crosslinking agent BS^3 (1 mM) was then added and the cells were further incubated for 45 minutes at 22 C. […] Non-specific binding was determined in the presence of a 100-fold molar excess of the unlabeled ligani. Cells were then washed, lysed in a solution containing 0.1 M NaOH and 0.1% SDS, and radioactivity determined by use of a gamma counter.
Taken together, the biological effects of NRG-4 and its complex formation with ErbB-4 implied not only specificity of recognition, but also weaker interaction relative to NRG-1. To quantify the interaction, a ligand displacement analysis on ErbB-4-expressing CHO cells was undertaken. […]

surface-expressed ErbB-4 = target: T4, surface-expressed ErbB-4 (Homo sapiens, UniProt Q15303); assay: Covalent crosslinking to CHO cells transfected with ErbB-4; type: binding; conditions: expression of ErbB-4 alone
T4 construct: expressed in transfected cells; host or cells: CHO (Chinese Hamster Ovary) cells
Experimental: as §1, §2

T4 sequence (Q15303 26-1308, species assumed): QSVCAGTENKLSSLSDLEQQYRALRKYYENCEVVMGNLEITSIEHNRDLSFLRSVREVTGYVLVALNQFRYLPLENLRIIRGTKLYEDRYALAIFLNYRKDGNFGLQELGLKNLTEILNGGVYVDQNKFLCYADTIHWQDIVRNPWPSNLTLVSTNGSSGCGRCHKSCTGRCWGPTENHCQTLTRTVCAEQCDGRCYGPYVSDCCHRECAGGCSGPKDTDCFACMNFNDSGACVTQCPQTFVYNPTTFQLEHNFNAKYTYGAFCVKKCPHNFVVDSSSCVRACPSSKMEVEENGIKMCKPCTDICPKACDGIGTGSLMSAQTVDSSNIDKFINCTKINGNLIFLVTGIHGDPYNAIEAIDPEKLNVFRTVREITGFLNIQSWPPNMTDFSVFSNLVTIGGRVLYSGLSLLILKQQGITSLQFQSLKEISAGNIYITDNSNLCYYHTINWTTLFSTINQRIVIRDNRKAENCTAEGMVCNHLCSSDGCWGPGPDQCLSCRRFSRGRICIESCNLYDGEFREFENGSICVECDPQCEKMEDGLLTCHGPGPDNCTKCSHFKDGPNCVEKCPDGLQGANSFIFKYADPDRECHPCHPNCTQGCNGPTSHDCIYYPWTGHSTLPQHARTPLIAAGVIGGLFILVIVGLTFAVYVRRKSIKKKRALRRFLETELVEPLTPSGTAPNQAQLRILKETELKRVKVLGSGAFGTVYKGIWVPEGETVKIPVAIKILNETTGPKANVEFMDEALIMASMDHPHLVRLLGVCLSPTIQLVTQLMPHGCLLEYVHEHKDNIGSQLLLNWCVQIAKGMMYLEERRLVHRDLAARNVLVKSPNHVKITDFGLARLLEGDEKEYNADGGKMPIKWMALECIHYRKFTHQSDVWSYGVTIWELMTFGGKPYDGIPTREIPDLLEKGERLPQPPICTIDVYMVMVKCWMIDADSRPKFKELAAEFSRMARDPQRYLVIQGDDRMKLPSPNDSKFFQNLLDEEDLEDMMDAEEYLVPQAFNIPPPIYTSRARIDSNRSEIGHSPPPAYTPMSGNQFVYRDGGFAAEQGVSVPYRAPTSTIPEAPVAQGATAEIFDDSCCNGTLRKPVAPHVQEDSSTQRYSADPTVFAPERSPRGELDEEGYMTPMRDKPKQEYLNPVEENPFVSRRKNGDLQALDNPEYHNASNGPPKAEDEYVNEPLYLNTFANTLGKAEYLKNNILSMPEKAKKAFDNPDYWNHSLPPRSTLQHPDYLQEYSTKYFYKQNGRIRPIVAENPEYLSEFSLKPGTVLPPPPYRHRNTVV
T3 sequence (Q15303 26-1308, species assumed): as above

heterodimers of ErbB-4 with ErbB-2 [1]: existence of NRG-4-promoted heterodimers
heterodimers of ErbB-4 with ErbB-1 ([2]; precipitation with anti-ErbB-1 antibodies): existence of NRG-4-promoted heterodimers
lower binding affinity to ErbB-4 compared with unlabeled NRG-1 (ErbB-4): approximately 8 fold
complex formation with ErbB-4 on CHO cells (surface-expressed ErbB-4; 125I-ligand 100 ng/ml): ability to form complexes
B1: NRG-4: synthetic refolded mouse EGF-like domain of NRG-4 (residues 4 to 50, SEQ ID NO:2) (peptide, listed as Mus musculus)
chain: MPTDHEQPCGPRHRSFCLNGGICYVIPTIPSPFCRCIENYTGARCEEVFLPSSSIPSESNLSAAFVVLAVLLTLTIAALCFLCRKGHLQRASSVQCEISLVETNNTRTRHSHREH
effect of ErbB-1 co-expression on the radioactive signal ([2]; CHO cells, ErbB-4 + ErbB-1): did not significantly affect the radioactive signals
binding to untransfected CHO cells [3]: failed to bind
covalent crosslinking signal compared with radioactive NRG-1 (surface-expressed ErbB-4): weaker than that observed with a radioactive NRG-1
